Measured values published in paper PMC10572589.

How the values were obtained:
[1] = molecular target: AusM^N127A (Aspergillus usamii E001 (parent AuXyn11A))
[2] = molecular target: thermostable GHF11 xylanase AusM (Aspergillus usamii E001 (parent AuXyn11A))

residual xylanase activity at a molar ratio of SyXIP-I/xylanase of 100:1 (% of initial activity) [1]: 62.7
molar excess of SyXIP-I over AusM needed for almost complete inhibition of xylanase activity (mol SyXIP-I per mol AusM) [2]: > 80
molar ratio of SyXIP-I to AusM at which the inhibition rate of xylanase activity reached 50% (birchwood xylan, pH 4.6, 50 °C) (mol SyXIP-I per mol AusM) [2]: 7
B1: xylanase inhibitor protein SyXIP-I (natural protein)
chain: AGGKTGQVTVFWGRNKAEGSLREACDSGMYTMVTMSFLDVFGANGKYHLDLSGHDLSSVGADIKHCQSKGVPVSLSIGGYGTGYSLPSNRSALDLFDHLWNSYFGGSKPSVPRPFGDAWLDGVDLFLEHGTPADRYDVLALELAKHNIRGGPGKPLHLTATVRCGYPPAAHVGRALATGIFERVHVRTYESDKWCNQNLGWEGSWDKWTAAYPATRFYVGLTADDKSHQWVHPKNVYYGVAPVAQKKDNYGGIMLWDRYFDKQTNYSSLIKYYA
